This is an account of results in patent publication US20210079109A1.

In experiment [1] the target is human CD63 (human) (UniProt P08962). The experiment is described as follows: imaging of stained T47D cells, 10 ug/mL antibody.
Experiment [2] has the same target. The experiment is described as follows: ECL, U87MG cells; signal < 100 RLU, classed non-binder.
The target is the same in experiment [3]. In words: flow cytometry, HEK293 cells. For orientation: A flow cytometer gives signals particle by particle.

human CD63 (human), sequence (P08962 2-238 limits assumed): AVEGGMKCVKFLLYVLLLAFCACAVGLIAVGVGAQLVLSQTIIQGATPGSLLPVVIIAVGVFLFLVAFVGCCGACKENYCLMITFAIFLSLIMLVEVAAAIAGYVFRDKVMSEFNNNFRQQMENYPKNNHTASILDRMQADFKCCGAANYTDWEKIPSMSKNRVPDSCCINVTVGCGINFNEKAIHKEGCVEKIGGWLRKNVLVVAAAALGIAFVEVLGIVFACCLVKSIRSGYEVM

Turning to Human IgG4 isotype control (antibody), in the experiment with human CD63 (human) [1], the Total RFU at 4C amounted to 138000 RFU and the Total RFU at 37C (2 h) was -80500 RFU. In addition, the binding ratio at 3.7 nM vs NIH3T3 with human CD63 (human) [2] is 4 fold.
In turn, Isotype Control 2 (antibody) registered a S/N (MFI over no-antibody wells) in the experiment with human CD63 (human) [3] of 1.5.
Regarding mIgG2a Isotype control (antibody), in the experiment with human CD63 (human) [1], the Total RFU at 4C was -73400 RFU and the Total RFU at 37C (2 h) came to 65400 RFU.
As to mIgG1 Isotype control (antibody), in the experiment with human CD63 (human) [1], the Total RFU at 4C is -93900 RFU and the Total RFU at 37C (2 h) was found to be 57400 RFU.
In turn, Isotype Control 1 (antibody) registered a S/N (MFI over no-antibody wells) in the experiment with human CD63 (human) [3] of 1.4.
